Results: patent publication EP2216341A1, “Transferrin variants and conjugates” (Novozymes Biopharma UK Limited, priority 2009, dated 2010)

Tests used:
[1] = target: T1, transferrin receptor 1 (TfR1) (Homo sapiens, UniProt P02786); test: Transferrin receptor 1 binding by Surface Plasmon Resonance (SPR, Biacore); conditions: fluorescein conjugated sample
T1 construct: purchased AbD Serotec 9110-300
Excerpt: The receptor binding capability of the recombinant transferrin variants can be determined by Surface Plasmon Resonance (SPR) analysis. The binding activity of a transferrin sample to a transferrin receptor can be measured using surface plasmon resonance (SPR) a non-invasive optical technique in which the SPR response is a measure of change in mass concentration at the detector surface as molecules bind or dissociate. A sample is sent onto the surface of the sensor chip via a micro flow system at a constant flow rate. In this analysis, if the transferrin sample is able to bind to the Transferrin Receptor the mass on the surface sensor chip is increased due to binding between Transferrin Receptor and Transferrin molecules creating a surface plasmon wave, and a shift of the SPR signal proportional to the binding quantity can be detected as a change in the resonance unit (RU). […]
The binding capacity of human serum transferrin to human trabnsferrin receptor 1 may be measured by SPR. […]
The receptor binding capability of the recombinant transferrin variants was assessed by Surface Plasmon Resonance (SPR) analysis. The binding activity of a transferrin sample to transferrin receptor can be measured using surface plasmon resonance (SPR) a non-invasive optical technique in which the SPR response is a measure of change in mass concentration at the detector surface as molecules bind or dissociate. […]

[2] = test system: K562 erythroleukemic cells; test: 55Fe uptake from labeled diferric transferrin in erythroleukemic K562 cells; assay type: cell-based, human; conditions: 25 minutes at 37°C
Experimental: Human plasma-derived apo-transferrin (Calbiochem 616419, tissue culture grade, pyrogen-free) is supplied lyophilised from 10mM phosphate buffer, pH7.4. The transferrin mutein is expressed, purified and quantified as described above.
For iron-55 uptake from labeled diferric transferrin, K562 erythroleukemic cells, cultured in RPMI cell culture medium under standard conditions (bicarbonate-buffered, 5% (v/v) CO2, antibiotics, 10% (v/v) fetal calf serum) are washed with serum-free medium containing HEPES-buffer and 1 mg/ml of bovine serum albumin and used at a concentration of 10 million cells/ml in this medium. The samples tested are prepared as equimolar concentrations of apo-transferrin mutein. Apo-transferrin mutein is loaded with iron according to a standard procedure (Bates and Schlabach, J Biol Chem, 248, 3228-3232, 1973) using ferric nitrilotriacetate as iron source. Typically 50µl of 1 M NaClO4 is added to 450µl of the transferrin mutein stock-solution (pH is alkaline to neutral). The ^55Fe -NTA-loading-buffer is prepared by mixing 8.5µl 50mM NTA (pH 8.25), 18.9µl 0.1M Tris, 98.8µl Millipore-purified water and 7.5µl ^55FeCl3 in 0.5 N HCl (NEN products). 500µl of transferrin mutein is carefully mixed (dropwise) with the ^55Fe -NTA-loading-buffer and then 310µl of 5mM Hepes. NaOH/0.1M NaClO4 is added. The mixture is incubated at 4°C for 60 min following which it is deslated on a PD-10 column (containing Sephadex G-25) and dialysed. The PD-10 column is equilibrated with 5ml of equilibration buffer (5mM Hepes/NaOH, 0.1M NaClO4, 0.1 g BSA (Amresco)) then washed three times with 5ml of wash buffer (5mM Hepes/NaOH, 0.1M NaClO4). […]
Increasing concentrations of human plasma transferrin or the transferrin mutein sample (0, 25, 100, 200, 400, 800, 1600 nM), labeled with ^55Fe, are mixed with 25 µl of medium. […] The lysates are neutralized with 1 M HCl after overnight lysis, mixed with Readysolv Scintillation cocktail and counted in the Packard Liquid Scintillation Counter. […]

T1 sequence (P02786 whole entry): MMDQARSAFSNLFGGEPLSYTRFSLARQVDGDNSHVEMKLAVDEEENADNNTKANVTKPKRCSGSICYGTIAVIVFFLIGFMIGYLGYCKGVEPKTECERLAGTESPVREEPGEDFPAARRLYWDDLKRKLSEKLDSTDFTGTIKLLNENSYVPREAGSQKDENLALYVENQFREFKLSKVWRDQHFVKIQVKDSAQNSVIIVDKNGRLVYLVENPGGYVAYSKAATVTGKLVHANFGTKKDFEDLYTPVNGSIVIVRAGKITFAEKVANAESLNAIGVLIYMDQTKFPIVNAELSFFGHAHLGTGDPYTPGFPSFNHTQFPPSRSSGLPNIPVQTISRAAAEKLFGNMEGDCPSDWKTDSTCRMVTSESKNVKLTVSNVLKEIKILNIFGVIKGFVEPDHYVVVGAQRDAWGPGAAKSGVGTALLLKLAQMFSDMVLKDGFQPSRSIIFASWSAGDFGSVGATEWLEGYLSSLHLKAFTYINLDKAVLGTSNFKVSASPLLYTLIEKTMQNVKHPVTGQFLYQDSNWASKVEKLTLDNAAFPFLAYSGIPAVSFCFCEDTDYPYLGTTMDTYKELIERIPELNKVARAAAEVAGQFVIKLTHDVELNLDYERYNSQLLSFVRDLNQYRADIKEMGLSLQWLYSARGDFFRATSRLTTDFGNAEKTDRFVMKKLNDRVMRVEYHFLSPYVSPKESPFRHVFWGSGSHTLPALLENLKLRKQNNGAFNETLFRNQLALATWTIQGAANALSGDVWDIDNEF

B1: Fluorescein conjugated thio-transferrin (S28C, S415A, T613A): Thiotransferrin (S28C, S415A, T613A) conjugated with fluorescein (conjugate, UniProt P02787 20-698, looked up, variant S28C S415A T613A)
Serotransferrin: VPDKTVRWCAVSEHEATKCQSFRDHMKCVIPSDGPSVACVKKASYLDCIRAIAANEADAVTLDAGLVYDAYLAPNNLKPVVAEFYGSKEDPQTFYYAVAVVKKDSGFQMNQLRGKKSCHTGLGRSAGWNIPIGLLYCDLPEPRKPLEKAVANFFSGSCAPCADGTDFPQLCQLCPGCGCSTLNQYFGYSGAFKCLKDGAGDVAFVKHSTIFENLANKADRDQYELLCLDNTRKPVDEYKDCHLAQVPSHTVVARSMGGKEDLIWELLNQAQEHFGKDKSKEFQLFSSPHGKDLLFKDSAHGFLKVPPRMDAKMYLGYEYVTAIRNLREGTCPEAPTDECKPVKWCALSHHERLKCDEWSVNSVGKIECVSAETTEDCIAKIMNGEADAMSLDGGFVYIAGKCGLVPVLAENYNKADNCEDTPEAGYFAIAVVKKSASDLTWDNLKGKKSCHTAVGRTAGWNIPMGLLYNKINHCRFDEFFSEGCAPGSKKDSSLCKLCMGSGLNLCEPNNKEGYYGYTGAFRCLVEKGDVAFVKHQTVPQNTGGKNPDPWAKNLNEKDYELLCLDGTRKPVEEYANCHLARAPNHAVVTRKDKEACVHKILRQQQHLFGSNVADCSGNFCLFRSETKDLLFRDDTVCLAKLHDRNTYEKYLGEEYVKAVGNLRKCSTSSLLEACTFRRP
modifications: fluorescein conjugate
- ability to bind to transferrin receptor 1 (measured by SPR) [1]: able to bind to transferrin receptor 1
- Specific iron ptake Bmax ([2]; 55Fe-labeled sample 0-1600 nM, specific uptake (unspecific binding with hundredfold excess unlabeled diferric transferrin accounted for)): 2430±125 fmol^55Fe/10^6 cells 25min
- Total Iron Uptake Bmax ([2]; 55Fe-labeled sample 0-1600 nM, total uptake): 3294±170 fmol^55Fe/10^6 cells x 25min
- Kd ([2]; specific uptake, read-out: Specific iron ptake Kd x): 154 ± 32 nM
